The term EC50 denotes the concentration giving half of the maximal effect. One may read the Kd as a measure of binding affinity in units of concentration. Usually koff stands for the first-order rate constant of dissociation. One may read the kon as the second-order rate constant of association.

For experiment [1], the target named is T1, human IL-17A (human, UniProt Q16552 24-155).
T1 construct: Biotinylated in the ELISA; also called hIL-17; Hu IL-17A
Put plainly: ELISA, captured antibody, serially diluted biotin-IL-17 (Example 1.5.1). A general note: In an ELISA, binding on a coated surface is turned into a signal by an enzyme label.
T1 sequence (Q16552 24-155 limits assumed): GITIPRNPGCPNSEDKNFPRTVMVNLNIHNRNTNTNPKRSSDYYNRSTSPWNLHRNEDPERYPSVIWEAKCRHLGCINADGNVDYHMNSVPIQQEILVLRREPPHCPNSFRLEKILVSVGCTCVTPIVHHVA

The target in experiment [2] is T1, human IL-17A. Put plainly: cell-based or functional assay.
The target in experiment [3] is cynomolgous monkey (cyno) IL-17A (cynomolgus monkey, UniProt A0A2K5TTB0 24-155). The experiment can be described thus: cell-based or functional assay.
Sequence of cynomolgous monkey (cyno) IL-17A (A0A2K5TTB0 entry or part of it): as the sequence (Q16552 24-155 limits assumed) above, with T3A, P8S, N34S, I77V, N78K, P104R counted along it
Experiment [4] concerns the target human IL-17A/F (human, UniProt Q16552 24-155; Q96PD4 31-163). Put plainly: cell-based or functional assay.
Target sequence in this assay (Q16552 24-155 limits assumed, chain 1 of 2): as the sequence (Q16552 24-155 limits assumed) above
Target sequence in this assay (Q96PD4 31-163 limits assumed, chain 2 of 2): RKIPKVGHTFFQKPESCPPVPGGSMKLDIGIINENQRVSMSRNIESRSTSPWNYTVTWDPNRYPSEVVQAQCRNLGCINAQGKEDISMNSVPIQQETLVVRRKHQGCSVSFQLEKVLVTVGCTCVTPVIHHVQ
The target of experiment [5] is T2, human IL-17A (human, UniProt Q16552 24-155).
T2 construct: Recombinant; biotinylated in the ELISA; also called hIL-17; hIL17A
Put plainly: SPR (Biacore 3000), antibody captured by anti-Fc, antigen in solution.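 Also: purified recombinant IL-17 antigens flowed over captured antibodies in HBS-EP buffer, global Langmuir one-to-one fit of association and dissociation phases, KD derived from koff over kon.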 On the technique in general: SPR reads the build-up and loss of mass on a sensor chip optically.
T2 sequence (Q16552 24-155): as the sequence (Q16552 24-155 limits assumed) above
Protocol: (§1) The binding of antibodies to purified recombinant human, cyno, rat, mouse, rabbit IL-17 and human IL-17A/F were determined by surface plasmon resonance-based measurements with a Biacore® 3000 instrument (Biacore® AB, Uppsala, Sweden) using running HBS-EP (10 mM HEPES [pH 7.4], 150 mM NaCl, 3 mM EDTA, and 0.005% surfactant P20) at 25° C. […] Approximately 5000 RU of goat anti-mouse or anti-human IgG (Fcγ) fragment specific polyclonal antibody (Pierce Biotechnology Inc, Rockford, Ill.) diluted in 10 mM sodium acetate (pH 4.5) was directly immobilized across a CM5 research grade biosensor chip using a standard amine coupling kit according to manufacturer's instructions and procedures at 25 μg/ml. Unreacted moieties on the biosensor surface were blocked with ethanolamine. Modified carboxymethyl dextran surface in flowcell 2 and 4 was used as a reaction surface. Unmodified carboxymethyl dextran without goat anti-mouse or anti-human IgG in flow cell 1 and 3 was used as the reference surface. For kinetic analysis, rate equations derived from the 1:1 Langmuir binding model were fitted simultaneously to association and dissociation phases of all eight injections (using global fit analysis) with the use of Biaevaluation 4.0.1 software. Purified antibodies were diluted in HEPES-buffered saline for capture across goat anti-mouse or anti-human IgG specific reaction surfaces. Antibodies to be captured as a ligand (25 μg/ml) were injected over reaction matrices at a flow rate of 5 μl/min. The association and dissociation rate constants, kon (unit M-1s-1) and koff (unit s-1) were determined under a continuous flow rate of 25 μl/min. Rate constants were derived by making kinetic binding measurements at ten different antigen concentrations ranging from 10 nM to 200 nM. The equilibrium dissociation constant (unit M) of the reaction between antibodies and recombinant purified IL-17 antigens was then calculated from the kinetic rate constants by the following formula: KD=koff/kon. Binding was recorded as a function of time and kinetic rate constants are calculated. In this assay, on-rates as fast as 10⁶ M⁻¹ s⁻¹ and off-rates as slow as 10⁻⁶ s⁻¹ can be measured.

For experiment [6], the target named is T3, cynomolgus monkey IL-17A (cynomolgus monkey, UniProt A0A2K5TTB0 24-155).
T3 construct: biotinylated in the ELISA; also called cyno IL-17; Cyno IL-17A
T3 sequence (A0A2K5TTB0 entry or part of it): as the sequence (Q16552 24-155 limits assumed) above, with T3A, P8S, N34S, I77V, N78K, P104R counted along it
The experiment is described as above.
Protocol: as §1

Experiment [7] addresses T4, rat IL-17A (rat, UniProt Q61453 18-150, limits assumed).
T4 construct: Purified recombinant protein in SPR
T4 sequence (looked up): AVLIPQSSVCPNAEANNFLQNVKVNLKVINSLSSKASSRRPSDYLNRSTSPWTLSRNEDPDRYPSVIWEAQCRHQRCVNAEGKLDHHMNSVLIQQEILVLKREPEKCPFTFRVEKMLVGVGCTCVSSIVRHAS
Described as above.
Protocol: as §1

The target in experiment [8] is T5, human IL-17A/F (human, UniProt Q16552 24-155; Q96PD4 31-163).
T5 construct: Recombinant; biotinylated in the ELISA; also called hIL-17A/F; HuIL-17A/F
Described as above.
T5 sequence (Q16552 24-155, chain 1 of 2): as the sequence (Q16552 24-155 limits assumed) above
T5 sequence (Q96PD4 31-163, chain 2 of 2): as the sequence (Q96PD4 31-163 limits assumed, chain 2 of 2) above
Protocol: as §1

Experiment [9] deals with T6, mouse IL-17A (mouse, UniProt Q62386 26-158, limits assumed).
T6 construct: Purified recombinant protein in SPR; also called MuIL-17A; murine IL-17A
T6 sequence (looked up): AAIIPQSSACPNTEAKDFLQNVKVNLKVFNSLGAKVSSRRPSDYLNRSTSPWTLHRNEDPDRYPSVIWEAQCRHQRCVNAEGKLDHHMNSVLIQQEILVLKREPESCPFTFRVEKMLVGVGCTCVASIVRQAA
Described as above.
Protocol: as §1

Experiment [10] concerns the target T2, human IL-17A. Put plainly: hIL17A ELISA.

B1: IL17-B6-46 (antibody, V domains shown)
VH: EVQLVQSGAEVKKPGESLKISCKASGGSFISYGISWVRQAPGQGLEWMGGITHFFGSTDYAQKFQGRVTITADESTTTAYMELSGLTSDDTAVYYCAREPNEFWNGYYTTHDFDSWGQGTTVTVSS
VL: EIVLTQSPDFQSVTPKEKVTITCRASQAIGSELHWYQQKPDQSPKLLIKYASYSVSGVPSRFSGSGSGTDFTLTINGLEAEDAGTYYCHQSASLPYTFGQGTKVDIK
notes: also called pJP253 B6.1 #46VH / pJP254 B6.1 #46Vk
Regarding B1, in [1], the EC50 was determined as 140 pM. Also, the “Potency (pM), IL-17-driven IL-6 production in HS27 cells” value (shortened to “Potency (pM)”) in [2] was 59 pM.

B2: IL17-B6-18 (antibody, V domains shown)
VH: EVQLVQSGAEVKKPGESLKVSCKASGGRFRTYGISWVRQAPGQGLEWMGGITNFFGWTDYAQKFQGRVTITADESTTTAYMELSGLTSDDTAVYYCARVPNEFWNGYYATDYFDNWGQGTTVTVSS
VL: EIVLTQSPDFQSVTPKEKVTITCRASQEIGASLHWYQQKPDQSPKLLIKYASHSASGVPSRFSGSGSGTDFTLTINSLEAEDAATYYCHQSDGLPYTFGQGTKVDIK
notes: also called pJP251 B6.1 #18VH / pJP250 B6.1 #18Vk
Take B2: the midpoint of the response in experiment [1], the EC50, lay at 160 pM.

B3: B6-44 (antibody, V domains shown)
VH: EVQLVQSGAEVKKPGSSVKVSCKASGGSFLSYGFSWVRQAPGQGLEWMGGITPFFGLADYAQKFQGRVTITADESTTTAYMELSGLTSDDTAVYYCARESSEFWNGYYCTQDFDLWGQGTTVTVSS
VL: EIVLTQSPDFQSVTPKEKVTITCRASQDIGSDLHWYQQKPDQSPKLLIKYASNSISGVPSRFSGSGSGTDFTLTINGLEAEDAGTYYCHQTAYLPQTFGPGTKVDIK
Regarding B3, the results for the “Potency (pM)” value in experiment [3], in [2] and in experiment [4] were 65 pM, 120 pM and 288 pM, respectively.

B4: IL17-h5C5.18 (antibody, V domains shown)
VH: EVQLVQSGAEVKKPGASVKVSCKASGYTFTDYEFHWVRQAPGQGLEWIGVIHPGNGGTAYNQNFRDRATLTADKSTSTAYMELSSLRSEDTAVYYCTRFLTYEGYFDYWGQGTLVTVSS
VL: NIVMTQSPSSLSASVGDRVTITCKASQSVSIDVGWFQQKPGKSPKLLIYHASNRYTGVPSRFSGSGSGTDFTFTISSLQPEDFATYFCQQDYSSPYTFGQGTKLEIKR
notes: IgG; constant regions not specified; also called h5C5.18 (VH.1b-Vk.1c)
With B4, the Kd came out at 521 pM in experiment [5]; 437 pM in [6]; 9150 pM in [7]; 1310 pM in [8]; 2910 pM in experiment [9]. Also, the off-rate (koff) in [5] worked out at 0.000493 s⁻¹; in experiment [6], 0.000254 s⁻¹; in experiment [7], 0.00421 s⁻¹; in [8], 0.00101 s⁻¹; in experiment [9], 0.0005 s⁻¹. The kon in experiment [5] turned out to be 947000 M⁻¹ s⁻¹; in experiment [6] it was 581000 M⁻¹ s⁻¹; in experiment [7], 460000 M⁻¹ s⁻¹; in experiment [8] it was 772000 M⁻¹ s⁻¹; in experiment [9], 172000 M⁻¹ s⁻¹. In addition, the 50% effective concentration (EC50) in experiment [10] amounted to 30 pM.

B5: IL17-B6-29 (antibody, V domains shown)
VH: EVQLVQSGAEVKKPGSSVKVSCKASGGSFISYGYNWVRQAPGQGLEWMGGITPFFGTADYAQKFQGRVTITADESTTTAYMELSGLTSDDTAVYYCAREPNDFWNGYYTTHHFDYWGQGTTVTVSS
VL: DVVMTQSPDFQSVTPKEKVTITCRASQNIGSALHWYQQKPDQSPKLLIKYASQSISGVPSRFSGSGSGTDFTLTINGLEAEDAGTYYCHQSTSLPHTFGQGTKLDIKR
In experiment [1], B5 showed a half-maximal effective concentration (EC50) of 90 pM. Further, the “Potency (pM)” value in experiment [2] was 134 pM.

B6: IL17-G9-1 (antibody, V domains shown)
VH: EVQLLESGGGVVQPGRSLRLSCAASGFIFSNYGMHWVRQAPGKGLEWVAVISYDGSNKYYADSVKGRFTISRDNSKNTLYLEMNSLRPEDTAVYYCAKVGASGDYYYSYGLDVWGQGTTVTVSS
VL: QSVLTQPPSASGTPGQTVSISCSGSHSNIGRHPVDWYQQVPGAAPKLLMYYGGYRPSGVPDRFSGSQSGTSASLAISGLQSEDEADYYCATWDDRLVGYVFGSGTKVTVLG
In the case of B6, in [1], a half-maximal effect (EC50) was put at 130 pM. Moreover, the figures for the “Potency (pM)” value in experiment [3], in experiment [2] and in [4] were 604 pM, 27 pM and 99 pM, respectively.

B7: IL17-G9-6 (antibody, V domains shown)
VH: EVQLLESGGGVVQPGRSLRLSCAASGFIFSDYGMHWVRQAPGKGLEWVAVISYDGSNKYYADSVKGRFTISRDNSKNTLYLEMNSLRPEDTAVYYCAKVGASGDYYYSYGLDVWGQGTTVTVSS
VL: QSVLTQPPSASGTPGQTVSISCSGRQSNIGNHYVDWYQQVPGAAPKLLIYGDVIRPSGVPDRFSGSQSGTSASLAISGLQSEDEADYYCATWDDWLAGYVFGSGTKVTVLG
Take B7: the response in experiment [1] was half-maximal at 120 pM (EC50). In addition, the “Potency (pM)” value in experiment [2] was found to be 884 pM.

B8: IL17-G9-M1 (antibody, V domains shown)
VH: EVQLLESGGGVVQPGRSLRLSCAASGFIFSNYGMHWVRQAPGKGLEWVAVISYDGGYKYYADSVKGRFTISRDNSKNTLYLEMNSLRPEDTAVYYCAKLSLSGDYYYSYGFDGWGQGTTVTVSS
VL: QSVLTQPPSASGTPGQTVSISCSGSKSNIGSHYVHWYQQVPGAAPKLLMYDFGQRPSGVPDRFSGSQSGTSASLAISGLQSEDEADYYCGTWDDWLGGYVFGTGTKVTVLG
With B8, a half-maximal response in [1] (EC50) required 80 pM. Further, in [2], the “Potency (pM)” value was found to be 88 pM.

B9: IL17-G9-5 (antibody, V domains shown)
VH: EVQLLESGGGVVQPGRSLRLSCAASGFIFRNYGMHWVRQAPGKGLEWVAVIAYDGSRQYYSDSVKGRFTISRDNSKNTLYLEMNSLRPEDTAVYYCAKVGASGDYYYSYGLDLWGQGTTVTVSS
VL: QSVLTQPPSASGTPGQTVSISCSGRQSNIGRHYVDWYQQVPGAAPKLLMYYDSIRPSGVPDRFSGSQSGTSASLAISGLQSEDEADYYCGMWDDSLAGYVFGSGTKVTVLG
The molecule B9 had an EC50 in [1] of 120 pM. For the same molecule, in experiment [2], the “Potency (pM)” value came out at 310 pM.

B10: IL17-G9-3 (antibody, V domains shown)
VH: EVQLLESGGGVVQPGRSLRLSCAASGFIFSNYGMHWVRQAPGKGLEWVAVISYDGSNKYYADSVKGRFTISRDNSKNTLYLEMNSLRPEDTAVYYCAKVGASGDYYYSYGLDVWGQGTTVTVSS
VL: QSVLTQPPSASGTPGQTVSISCSGRNSNIGSHYVHWYQQVPGAAPKLLMYDFGLRPSGVPDRFSVSQSGTSASLAISGLQSEDEADYYCATWDDMLGGYVFGTGTKVTVLG
With B10, a half-maximal effect in [1] (EC50) was put at 50 pM. For the same molecule, in experiment [2], the “Potency (pM)” value stood at 334 pM.

B11: IL17-G9-4 (antibody, V domains shown)
VH: EVQLLESGGGVVQPGRSLRLSCAASGFIFSNYGMHWVRQAPGKGLEWVAVISYDGSNKYYADSVKGRFTISRDNSKNTLYLEMNSLRPEDTAVYYCAKVGASGDYYYSYGLDVWGQGTTVTVSS
VL: QSVLTQPPSASGTPGQTVSISCSGRQSNIGRHYVDWYQQVPGAAPKLLMYYDSIRPSGVPDRFSGSQSGTSASLAISGLQSEDEADYYCATWDDSLGGYVFGSGTKVTVLG
notes: no own VH entry is printed
Regarding B11, in experiment [1], the midpoint of the response, the EC50, lay at 60 pM. For the same molecule, the “Potency (pM)” value in experiment [3] is 247 pM; in experiment [2], 38 pM; in experiment [4] it was 119 pM.

B12: IL17-G9-2 (antibody, V domains shown)
VH: EVQLLESGGGVVQPGRSLRLSCAASGFIFRNYGMHWVRQAPGKGLEWVAVISYDGSNKYYADSVKGRFTISRDNSKNTLYLEMNSLRPEDTAVYYCAKVGASGDYYYSYGLDVWGQGTTVTVSS
VL: QSVLTQPPSASGTPGQTVSISCSGSNSNIGRHPVDWYQQVPGAAPKLLIYYDDQRPSGVPDRFSGSQSGTSASLAISGLQSEDEADYYCATWDDSLGGYVFGSGTKVTVLG
B12 had an EC50 in experiment [1] of 180 pM. The “Potency (pM)” value came to 157 pM in experiment [3], 24 pM in [2] and 147 pM in [4].

B13: IL17-LN-K9-F5 (antibody, V domains shown)
VH: EVQLVQSGAEVKNPGASVKVSCKVSGSRLSDLAMHWVRQAPGKGPEWMGGFDPDEGETVYAQNFQGRVSMTEDTSSDTAYMELNSLRSEDTAVYYCATIRPWLGGAYYFDNWGQGTLVTVSS
VL: ETTLTQSPAFMSATPGDKVNISCKASQDIDDDMNWYQQKPGEAALFIIQEATTLVPGIPPRFSGSGYGTDFTLTVNNIQSEDAAYYFCLQHDSFPYTFGQGTKLEIKR
notes: Fully human monoclonal antibody from mRNA display
B13 gave a concentration for a half-maximal effect (EC50) in [1] of 7440 pM.

These data come from patent US20140348834A1 (published 2014).
